In IntAct's records for PubMed 11356191:

Molecular target: ptn13_human PTPN13 (UniProt Q12923)
Sequence (Q12923 whole entry): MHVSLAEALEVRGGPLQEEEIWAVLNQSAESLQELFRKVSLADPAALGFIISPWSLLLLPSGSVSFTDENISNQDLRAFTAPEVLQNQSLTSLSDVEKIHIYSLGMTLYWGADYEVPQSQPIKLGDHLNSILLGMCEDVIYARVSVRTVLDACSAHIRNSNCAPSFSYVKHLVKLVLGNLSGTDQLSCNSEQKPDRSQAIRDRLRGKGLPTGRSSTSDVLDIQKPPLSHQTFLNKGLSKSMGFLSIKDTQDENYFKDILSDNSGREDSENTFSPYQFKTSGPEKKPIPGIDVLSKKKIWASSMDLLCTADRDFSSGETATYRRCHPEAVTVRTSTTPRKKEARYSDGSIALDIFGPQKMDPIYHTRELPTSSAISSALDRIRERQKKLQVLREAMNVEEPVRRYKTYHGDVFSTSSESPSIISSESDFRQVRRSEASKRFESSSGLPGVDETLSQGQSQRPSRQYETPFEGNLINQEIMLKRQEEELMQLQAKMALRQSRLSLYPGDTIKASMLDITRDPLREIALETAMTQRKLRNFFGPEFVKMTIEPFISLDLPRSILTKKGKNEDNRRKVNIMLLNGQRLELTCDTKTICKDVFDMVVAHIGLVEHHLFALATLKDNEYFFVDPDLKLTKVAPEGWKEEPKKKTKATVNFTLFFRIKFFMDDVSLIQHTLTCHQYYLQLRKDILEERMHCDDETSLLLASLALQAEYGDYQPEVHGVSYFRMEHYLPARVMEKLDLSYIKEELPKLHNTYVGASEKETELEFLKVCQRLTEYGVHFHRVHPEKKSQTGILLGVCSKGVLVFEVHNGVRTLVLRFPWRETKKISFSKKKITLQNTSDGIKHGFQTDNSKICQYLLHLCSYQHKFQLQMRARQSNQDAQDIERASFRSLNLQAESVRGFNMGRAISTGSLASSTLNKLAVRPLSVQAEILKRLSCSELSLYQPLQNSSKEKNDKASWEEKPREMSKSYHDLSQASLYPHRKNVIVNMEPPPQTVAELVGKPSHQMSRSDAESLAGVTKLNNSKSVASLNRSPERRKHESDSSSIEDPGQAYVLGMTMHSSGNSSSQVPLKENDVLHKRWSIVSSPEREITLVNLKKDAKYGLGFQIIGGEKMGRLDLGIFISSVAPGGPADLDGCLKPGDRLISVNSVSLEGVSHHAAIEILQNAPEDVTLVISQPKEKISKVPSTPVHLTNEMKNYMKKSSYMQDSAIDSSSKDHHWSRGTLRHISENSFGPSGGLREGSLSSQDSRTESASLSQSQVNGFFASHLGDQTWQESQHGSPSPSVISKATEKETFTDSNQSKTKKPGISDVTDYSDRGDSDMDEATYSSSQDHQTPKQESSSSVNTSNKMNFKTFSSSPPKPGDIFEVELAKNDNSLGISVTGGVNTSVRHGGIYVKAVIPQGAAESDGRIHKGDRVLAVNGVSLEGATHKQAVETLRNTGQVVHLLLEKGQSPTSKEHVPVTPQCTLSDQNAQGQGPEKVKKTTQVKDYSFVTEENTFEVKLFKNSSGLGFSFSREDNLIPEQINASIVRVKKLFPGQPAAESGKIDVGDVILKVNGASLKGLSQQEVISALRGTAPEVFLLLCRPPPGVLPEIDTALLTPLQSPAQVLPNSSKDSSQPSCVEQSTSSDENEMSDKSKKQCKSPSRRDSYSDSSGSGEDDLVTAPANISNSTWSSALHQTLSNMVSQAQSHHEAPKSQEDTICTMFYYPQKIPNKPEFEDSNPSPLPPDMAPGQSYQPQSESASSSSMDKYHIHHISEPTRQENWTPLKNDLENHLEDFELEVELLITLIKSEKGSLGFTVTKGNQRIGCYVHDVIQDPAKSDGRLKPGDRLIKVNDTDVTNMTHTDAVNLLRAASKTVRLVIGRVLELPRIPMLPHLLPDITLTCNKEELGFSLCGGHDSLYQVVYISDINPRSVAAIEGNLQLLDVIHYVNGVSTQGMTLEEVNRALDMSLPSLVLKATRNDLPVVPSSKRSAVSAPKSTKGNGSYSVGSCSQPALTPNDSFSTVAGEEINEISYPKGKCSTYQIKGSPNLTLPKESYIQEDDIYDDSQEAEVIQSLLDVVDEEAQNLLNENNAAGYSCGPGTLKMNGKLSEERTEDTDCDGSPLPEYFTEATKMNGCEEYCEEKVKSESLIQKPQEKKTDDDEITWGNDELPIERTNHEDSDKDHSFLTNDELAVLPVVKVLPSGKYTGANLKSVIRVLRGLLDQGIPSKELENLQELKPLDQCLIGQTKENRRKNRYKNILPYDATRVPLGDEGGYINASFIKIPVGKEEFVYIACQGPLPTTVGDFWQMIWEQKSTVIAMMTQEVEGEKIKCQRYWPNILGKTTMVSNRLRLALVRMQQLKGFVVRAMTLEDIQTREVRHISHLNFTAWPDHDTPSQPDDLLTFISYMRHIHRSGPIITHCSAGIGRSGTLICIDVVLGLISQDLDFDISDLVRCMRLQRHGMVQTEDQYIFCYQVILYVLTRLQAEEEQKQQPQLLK

## Serine/threonine-protein kinase N2 (Homo sapiens), Q16513 C984S
  effect of a mutation on the interaction: disrupting interaction
